Assay results reported in patent US20050208120A1.

Experiments:
[1] = molecular target: T cell receptor of the I-A^d restricted OVA specific T cell hybridoma 8DO51.15; assay: flow cytometry; biotinylated MHC in liposomes, no peptide
[2] = molecular target: T cell receptor of the I-A^d restricted OVA specific T cell hybridoma 8DO51.15; assay: flow cytometry; liposome:MHC:b-peptide with streptavidin-FITC on hybridoma cells, final MHC concentration 66 ug/ml
[3] = molecular target: T cell receptors of T cell populations derived from Iα52-supplemented FTOC and expanded with Hi15
[4] = molecular target: T cell receptor of the I-A^d restricted OVA specific T cell hybridoma 8DO51.15; assay: flow cytometry; correct restriction element, irrelevant peptide, on 8D051.15 cells
[5] = molecular target: T cell receptors of CD4+ T cells from regional draining lymph nodes of BALB/c mice; assay: flow cytometry T cell capture; lymph node cells of IFA-only immunized BALB/c mice; polyclonal
[6] = molecular target: T cell receptors of CD4+ cells from BALB/c fetal thymic organ culture (FTOC); assay: flow cytometry T cell capture; FTOC in the presence of 10^-2 mM Iα52; polyclonal thymocytes
[7] = molecular target: T cell receptors of T cell populations derived from Iα52-supplemented FTOC and expanded with Hi15; assay: flow cytometry; cells from Iα52-supplemented FTOC after two weeks with 10 ug/ml Hi15; polyclonal
[8] = molecular target: T cell receptors of CD4+ cells from BALB/c fetal thymic organ culture (FTOC); assay: flow cytometry T cell capture; FTOC alone without added peptide; polyclonal thymocytes
[9] = molecular target: T cell receptors of CD4+ T cells from regional draining lymph nodes of BALB/c mice; assay: flow cytometry T cell capture; lymph node cells of Iα52-immunized BALB/c mice; polyclonal

B1: biotinylated I-A^d in liposomes without peptide (protein, mouse)
MHC II alpha: EDDIEADHVGFYGTTVYQSPGDIGQYTHEFDGDELFYVDLDKKKTVWRLPEFGQLILFEPQGGLQNIAAEKHNLGILTKRSNFTPATNEAPQATVFPKSPVLLGQPNTLICFVDNIFPPVINITWLRNSKSVTDGVYETSFLVNRDHSFHKLSYLTFIPSDDDIYDCKVEHWGLEEPVLKHWEPEIPAPMSELTE
MHC II beta: GNSERHFVVQFKGECYYTNGTQRIRLVTRYIYNREEYVRYDSDVGEYRAVTELGRPDAEYWNSQPEILERTRAEVDTACRHNYEGPETSTSLRRLEQPNVAISLSRTEALNHHNTLVCSVTDFYPAKIKVRWFRNGQEETVGVSSTQLIRNGDWTFQVLVMLEMTPHQGEVYTCHVEHPSLKSPITVEWRAQSESARSK
% of cells bound [1]: 6.9%

B2: liposome:I-A^d:biotinylated OVA^323-336 peptide complex (peptide-MHC, mouse)
MHC II alpha: B1 MHC II alpha
MHC II beta: B1 MHC II beta
peptide: ISQAVHAAHAEINE
% of cells stained positive [2]: 87.2%

B3: liposome:I-A^d:biotinylated Hi15 peptide complex (peptide-MHC)
MHC II alpha: B1 MHC II alpha
MHC II beta: B1 MHC II beta
peptide: TSFPMRGDLAKREPDK
% of CD4+ cells positive for both peptides [3]: 31.1% | % of cells positive [3]: 52% | % positive cells [4]: 8.7%

B4: liposome:I-A^d:biotinylated Iα52 peptide complex (peptide-MHC, mouse)
MHC II alpha: B1 MHC II alpha
MHC II beta: B1 MHC II beta
peptide: ASFEAQGALANIAVDKA
% of CD4+ T cells specific [5]: 0.7% | % of CD4+ cells bound [6]: 50.9% | % of cells bound [7]: 52.8% | % of CD4+ cells positive for both peptides [3]: 31.1% | % of CD4+ cells bound [8]: 20.7% | % of CD4+ T cells specific [9]: 5.4%
